B1: NRC3_wobSeed76_DR3_G19T_o1 (dsDNA)
DNA 1: GCCCTACTGGGCCAAAAATGTCATTGATGCCGATAAGCGATTGACAGCGTAGAATGAAGG
DNA 2: CCTTCATTCTACGCTGTCAATCGCTTATCGGCATCAATGACATTTTTGGCCCAGTAGGGC
B2: NRC3_random_hg19_4_o1 (dsDNA)
DNA 1: GCGTAGTTGTGTCCTCTCCTGTTCTCTCTTCTACTGGCGATTGACAGCGTAGAATGAAGG
DNA 2: CCTTCATTCTACGCTGTCAATCGCCAGTAGAAGAGAGAACAGGAGAGGACACAACTACGC
B3: NRC3_random_hg19_202_o1 (dsDNA)
DNA 1: GCTCTCTGGTACCAGTGAAGAAGACGTCCAGGTGGCGCGATTGACAGCGTAGAATGAAGG
DNA 2: CCTTCATTCTACGCTGTCAATCGCGCCACCTGGACGTCTTCTTCACTGGTACCAGAGAGC
B4: NRC3_wobSeed138_DR5_G10A_o1 (dsDNA)
DNA 1: GCGATACAGAGTCAGCTAGAGGCCAGAGTATGGAAAGCGATTGACAGCGTAGAATGAAGG
DNA 2: CCTTCATTCTACGCTGTCAATCGCTTTCCATACTCTGGCCTCTAGCTGACTCTGTATCGC
B5: NRC3_wobSeed40_DR1_T12C_o1 (dsDNA)
DNA 1: GCTAGCCTAGGCCATGGGCCAGTATACCACGCGAACGCGATTGACAGCGTAGAATGAAGG
DNA 2: CCTTCATTCTACGCTGTCAATCGCGTTCGCGTGGTATACTGGCCCATGGCCTAGGCTAGC
B6: NRC3_random_hg19_331_o1 (dsDNA)
DNA 1: GCACAATCCCTACACTTTAGGAAGTCACAGTCTAGTGCGATTGACAGCGTAGAATGAAGG
DNA 2: CCTTCATTCTACGCTGTCAATCGCACTAGACTGTGACTTCCTAAAGTGTAGGGATTGTGC
B7: NRC3_random_hg19_324_o1 (dsDNA)
DNA 1: GCCAGTGATGCACACCTGTAACCCTAGCACTTTGGGGCGATTGACAGCGTAGAATGAAGG
DNA 2: CCTTCATTCTACGCTGTCAATCGCCCCAAAGTGCTAGGGTTACAGGTGTGCATCACTGGC
B8: NRC3_wobSeed15_DR0_G11C_o1 (dsDNA)
DNA 1: GCCGAACTAGCTCAAGGACAGTGAATCTCCGCACGCGCGATTGACAGCGTAGAATGAAGG
DNA 2: CCTTCATTCTACGCTGTCAATCGCGCGTGCGGAGATTCACTGTCCTTGAGCTAGTTCGGC
B9: NRC3_random_hg19_357_o1 (dsDNA)
DNA 1: GCAACAGATTTCATTGAGGTGATCTACTTCGTTTCTGCGATTGACAGCGTAGAATGAAGG
DNA 2: CCTTCATTCTACGCTGTCAATCGCAGAAACGAAGTAGATCACCTCAATGAAATCTGTTGC
B10: NRC3_wobSeed38_DR1_A14T_o1 (dsDNA)
DNA 1: GCCCTGCTAGGTCTATGGTCAGCTAAAGCAGCTCGCGCGATTGACAGCGTAGAATGAAGG
DNA 2: CCTTCATTCTACGCTGTCAATCGCGCGAGCTGCTTTAGCTGACCATAGACCTAGCAGGGC
B11: NRC3_random_hg19_75_o1 (dsDNA)
DNA 1: GCCTGAAACTACCTTATCTCTATTCTAGGCTTAAGCGCGATTGACAGCGTAGAATGAAGG
DNA 2: CCTTCATTCTACGCTGTCAATCGCGCTTAAGCCTAGAATAGAGATAAGGTAGTTTCAGGC
B12: NRC3_wobSeed87_DR3_T12A_o1 (dsDNA)
DNA 1: GCCGAACTAGGACATCCAGGACAGTGAATACATTGAGCGATTGACAGCGTAGAATGAAGG
DNA 2: CCTTCATTCTACGCTGTCAATCGCTCAATGTATTCACTGTCCTGGATGTCCTAGTTCGGC
B13: NRC3_wobSeed66_DR2_G11A_o1 (dsDNA)
DNA 1: GCAATACAGGATCACTAGGCCAGAGTAGGTACGAATGCGATTGACAGCGTAGAATGAAGG
DNA 2: CCTTCATTCTACGCTGTCAATCGCATTCGTACCTACTCTGGCCTAGTGATCCTGTATTGC
B14: NRC3_wobSeed93_DR3_G10T_o1 (dsDNA)
DNA 1: GCAGTCAAATTTCATCTAGGTAACGTAAGATATGCTGCGATTGACAGCGTAGAATGAAGG
DNA 2: CCTTCATTCTACGCTGTCAATCGCAGCATATCTTACGTTACCTAGATGAAATTTGACTGC
B15: NRC3_random_hg19_459_o1 (dsDNA)
DNA 1: GCAAACACAACAGTACCTACCTTAAGCAGTTCATCAGCGATTGACAGCGTAGAATGAAGG
DNA 2: CCTTCATTCTACGCTGTCAATCGCTGATGAACTGCTTAAGGTAGGTACTGTTGTGTTTGC
B16: NRC3_wobSeed88_DR3_T12A_o1 (dsDNA)
DNA 1: GCTAGCCTAGGACATGCGGGCCAGTATAGTGTCGGCGCGATTGACAGCGTAGAATGAAGG
DNA 2: CCTTCATTCTACGCTGTCAATCGCGCCGACACTATACTGGCCCGCATGTCCTAGGCTAGC
B17: NRC3_random_hg19_265_o1 (dsDNA)
DNA 1: GCCTCCCTCCTCCCATCCTCCACTTTCCCATAGGCCGCGATTGACAGCGTAGAATGAAGG
DNA 2: CCTTCATTCTACGCTGTCAATCGCGGCCTATGGGAAAGTGGAGGATGGGAGGAGGGAGGC
B18: NRC3_wobSeed90_DR3_A14C_o1 (dsDNA)
DNA 1: GCCATACAGGGTCCGCTAGGCCAGAGTAGGGACGGCGCGATTGACAGCGTAGAATGAAGG
DNA 2: CCTTCATTCTACGCTGTCAATCGCGCCGTCCCTACTCTGGCCTAGCGGACCCTGTATGGC
B19: NRC3_wobSeed117_DR4_T11C_o1 (dsDNA)
DNA 1: GCCGTCAAAGCTCAACTAAGGTAACGTAAAGCACGCGCGATTGACAGCGTAGAATGAAGG
DNA 2: CCTTCATTCTACGCTGTCAATCGCGCGTGCTTTACGTTACCTTAGTTGAGCTTTGACGGC
B20: NRC3_wobSeed86_DR3_C13A_o1 (dsDNA)
DNA 1: GCGCTGCTAGGTAAGGTTGGTCAGCTAACGGGTACGGCGATTGACAGCGTAGAATGAAGG
DNA 2: CCTTCATTCTACGCTGTCAATCGCCGTACCCGTTAGCTGACCAACCTTACCTAGCAGCGC
B21: NRC3_wobSeed16_DR0_C13G_o1 (dsDNA)
DNA 1: GCCAGCCTAGGTGAGGGCCAGTATAGGAGGAACGTTGCGATTGACAGCGTAGAATGAAGG
DNA 2: CCTTCATTCTACGCTGTCAATCGCAACGTTCCTCCTATACTGGCCCTCACCTAGGCTGGC
B22: NRC3_random_hg19_179_o1 (dsDNA)
DNA 1: GCGGGAGGTGTAAGGATCCTTGTGCACTGCTTGGGAGCGATTGACAGCGTAGAATGAAGG
DNA 2: CCTTCATTCTACGCTGTCAATCGCTCCCAAGCAGTGCACAAGGATCCTTACACCTCCCGC
B23: NRC3_wobSeed21_DR0_A14T_o1 (dsDNA)
DNA 1: GCCGTCAAAGTTCTAGGTAACGTAACAGAAAGCAGCGCGATTGACAGCGTAGAATGAAGG
DNA 2: CCTTCATTCTACGCTGTCAATCGCGCTGCTTTCTGTTACGTTACCTAGAACTTTGACGGC

Sequence of RARb:RXRa (P10826 whole entry, chain 1 of 2): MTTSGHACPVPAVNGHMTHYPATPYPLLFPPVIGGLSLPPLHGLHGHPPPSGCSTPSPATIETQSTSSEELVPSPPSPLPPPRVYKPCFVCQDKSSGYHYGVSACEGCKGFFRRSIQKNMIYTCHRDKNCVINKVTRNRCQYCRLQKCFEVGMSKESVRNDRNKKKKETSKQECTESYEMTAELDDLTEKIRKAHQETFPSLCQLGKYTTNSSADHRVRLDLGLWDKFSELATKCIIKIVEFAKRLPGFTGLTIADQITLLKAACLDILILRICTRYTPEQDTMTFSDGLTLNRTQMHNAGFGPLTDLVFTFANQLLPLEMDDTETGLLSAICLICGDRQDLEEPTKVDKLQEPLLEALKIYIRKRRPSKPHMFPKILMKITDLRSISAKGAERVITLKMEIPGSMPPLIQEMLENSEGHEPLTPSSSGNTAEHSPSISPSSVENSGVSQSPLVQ
Sequence of RARb:RXRa (P19793 whole entry, chain 2 of 2): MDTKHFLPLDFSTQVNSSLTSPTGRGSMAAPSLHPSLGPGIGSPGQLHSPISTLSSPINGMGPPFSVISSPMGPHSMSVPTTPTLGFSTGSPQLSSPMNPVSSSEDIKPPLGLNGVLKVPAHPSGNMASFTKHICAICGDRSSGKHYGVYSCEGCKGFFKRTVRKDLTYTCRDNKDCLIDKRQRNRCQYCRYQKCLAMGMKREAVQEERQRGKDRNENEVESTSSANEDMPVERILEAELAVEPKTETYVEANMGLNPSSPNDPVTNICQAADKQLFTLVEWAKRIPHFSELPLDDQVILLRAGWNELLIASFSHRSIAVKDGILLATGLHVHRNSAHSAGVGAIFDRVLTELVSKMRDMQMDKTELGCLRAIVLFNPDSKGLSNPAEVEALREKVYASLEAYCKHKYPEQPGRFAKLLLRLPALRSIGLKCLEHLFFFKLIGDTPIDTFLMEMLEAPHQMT

This data set has as its target RARb:RXRa (Homo sapiens, UniProt P10826;P19793 full;full). In words: no ligand; PBM; 270 nM : 90 nM RXRa; PBS pH 7.4, 2% milk, 0.02% Triton X-100, 1 mM DTT, BSA, 0.4 mg/ml salmon testes DNA. To be noted: tags: His kept;His cleaved; copies: 1;1; label: surface-attached array probe. The procedure, abridged: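 On custom Agilent 4×180K arrays, double-stranded probes with 34-nt variable regions carried direct-repeat seeds, single-nucleotide variants, half-site ablations or random human genomic background. Ligand-free nuclear receptor dimers were applied for 1 h, and binding was read with antibodies against each partner (one per run). Binding z-scores come from regression-normalized fluorescence, with the random background probes as reference.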
As for B1, the binding signal is 0.29 PBM z-score against 500 random probes.

Consider B2, for which the binding signal was 0.3 PBM z-score against 500 random probes.

Take B3: the binding signal is -0.14 PBM z-score against 500 random probes.

With B4, the binding signal was 0.27 PBM z-score against 500 random probes.

In the case of B5, the binding signal is 0.19 PBM z-score against 500 random probes.

With B6, the binding signal was 0.39 PBM z-score against 500 random probes.

As to B7, the binding signal was 0.04 PBM z-score against 500 random probes.

Consider B8, for which the binding signal is 0.3 PBM z-score against 500 random probes.

For B9, the binding signal is -0.12 PBM z-score against 500 random probes.

Turning to B10, the binding signal was 0.39 PBM z-score against 500 random probes.

Regarding B11, the binding signal is 0.33 PBM z-score against 500 random probes.

For the molecule B12, the binding signal was 0.14 PBM z-score against 500 random probes.

For B13, the binding signal is 0.18 PBM z-score against 500 random probes.

Turning to B14, the binding signal was 0.23 PBM z-score against 500 random probes.

For B15, the binding signal was 0.25 PBM z-score against 500 random probes.

Take B16: the binding signal was -0.15 PBM z-score against 500 random probes.

Regarding B17, the binding signal is 0.13 PBM z-score against 500 random probes.

As to B18, the binding signal was 0.26 PBM z-score against 500 random probes.

As for B19, the binding signal was 0.06 PBM z-score against 500 random probes.

For the molecule B20, the binding signal was 0.16 PBM z-score against 500 random probes.

For the molecule B21, the binding signal is 0.33 PBM z-score against 500 random probes.

Consider B22, for which the binding signal was 0.23 PBM z-score against 500 random probes.

In the case of B23, the binding signal is 0.4 PBM z-score against 500 random probes.

The values are drawn from article PMC6555819, “Comprehensive study of nuclear receptor DNA binding provides a revised framework for understanding receptor specificity”.
